These results are taken from US20230212319A1, “NOVEL ANTIGEN BINDING DOMAINS AND SYNTHETIC ANTIGEN RECEPTORS INCORPORATING THE SAME” (University of Southern California, priority 2020, published 2023).

In one experiment the test system is LNCaP cells. Briefly: JNG assay, co-culture with LNCaP cells. Format: cell-based. Conditions: for NFAT-GFP ASSAY: LNCaP: co-culture with LNCaP. Here is the method: Cellular supernatant is collected and assayed for the induction of cytokines (e.g., IL2).
JNG (Jurkat cells expressing EGFP under an NFAT promoter) were infected with lentiviral vectors encoding different single chain and multi-chain SARs by spinfection in the presence of 8 µg/ml of Polybrene® (Sigma, Catalog no. H9268). The Jurkat-NFAT-GFP cells are engineered in such a way that the IL-2 promoter, which carries NFAT binding sites, is cloned upstream of the GFP gene. These cells have been used to study signaling via TCR and CAR. The different SARs were stably expressed in Jurkat NFAT-GFP cells by lentiviral mediated gene transfer, followed by selection with puromycin or blasticidin. No drug selection was used in case the construct lacked an antibiotic resistance gene. The SAR-expressing Jurkat-NFAT-GFP cells were cocultured with the target cells at E:T ratio of approximately 1:2 for approximately 4 hours to 18 hours. When the interaction between SIRs and their target antigen results in activation of the NFAT pathway, GFP expression is induced. […] GFP expression was monitored by FACS analysis. The Jurkat-NFAT-GFP (parental) cells were used as control. The structure of different constructs can be determined based on their names. For example, the construct CD8SP-CD19-hu-mROO5-1-vL-[hTCRa-C SDVP]-F-F2A-Spe-IgHSP-Apa-CD20-vHH-2HCD25-G4S-CDl9-hu-mROO5-1-vH-Mlu-[hTCRb-KACIAH]-F-P2A-PAC has the following modules from 5′ to 3′ direction: a CD8 signal peptide (CD8SP), the CD19 targeting hu-mROO5-1 vL fragment (CD19-hu-mROO5-1), Xho1 cloning site, human TCRa constant chain containing CSDVP mutations (hTCRa-CSDVP), Furine cleavage site (F), F2A ribosomal skip sequence (F2A), SpeI site, human IgH signal peptide (IgHSP), Apa I restriction enzyme site, camelid CD20-2HCD25-VHH module targeting CD20, BamHI restriction enzyme site, Glycinex4-serine linker (G4S), BstI restriction enzyme site, CD19-hu-mROO5-1-vH fragment targeting CD19, Mlu I restriction enzyme site, human TCRb constant chain containing KACIAH mutations ([hTCRb-KACIAH]), Furine cleavage site (F), P2A ribosomal skip sequence and Puromycin resistance gene (PAC). The sequence of the other constructs in the table can be similarly determined from their names and by referring to the different Tables of this disclosure that provide the names and SEQ ID NO of the different modules. Alternatively, the composition and modular architecture of the different SAR constructs can be determined from their sequences by bioinformatics tools, including using nucleic acid and amino acids homology searches. A SAR is considered positive in the assay in case the SAR expressing Jurkat-NFAT-GFP cells show greater % GFP positive cells when cultured with the target cell line as compared to parental Jurkat-NFAT-GFP cells. The signs +/-, +, 2+ etc. after the name of the cell lines indicate the relative degree of positivity on the Jurkat-NFAT-GFP assay as measured by the % GFP positive cells after culture of the SAR expressing Jurkat-NFAT-GFP cells with that cell line above the % GFP cells observed in parental Jurkat NFAT-GFP cells serving as controls. In general, the number +/-, +, 2+, 3+, 4+, 5+ refer to approximately 5%, 10%, 20%, 30%, 40% and 50% GFP positive cells. The % of GFP induction in the above assay is dependent not only the relative strength of the SAR but also, among other factors, on the relative level of expression of the SAR in the JNG cells and the relative level of expression of the target antigen in the target cell line. To control for the difference in gene transduction efficiency of the different SAR constructs, the experiment was conducted with JNG cells transduced with SAR constructs co-expressing a drug resistance gene (e.g., puromycin or PAC) followed by drug selection to generate a stable population of SAR-expressing cells. […]

The next experiment concerns RAJI cells. Nature of the experiment: JNG assay, co-culture with RAJI cells. In kind it is cell-based. Conditions: co-culture with RAJI cells. In outline:
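Jurkat NFAT-GFP (JNG) cells stably transduced with SARs by lentivirus, with drug selection where the construct carried a resistance gene, then co-cultured with target cells at E:T ~1:2 for ~4–18 h. % GFP-positive cells measured by FACS against parental JNG; +/- to 5+ correspond to ~5–50% GFP-positive.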

B1: 22053 (protein)
chain: MALPVTALLLPLALLLHAARPQLQLQESGPGLVKPSETLSLTCTVSGDSISSGDYYWGWIRQPPGKGLEWIGHIYYSGVTYYNPSLKSRVTISVDTSRNQFSLKLSSVTAADTAVYYCTREDSSNWRSRGQGTLVTVSSLEDKTHTCPPCPAPIKTDVITMDPKDNCSKDANDTLLLQLTNTSAYYMYLLLLLKSVVYFAIITCCLLRRTAFCCNGEKSRAKRSGSGATNFSLLKQAGDVEENPGPTSMDWIWRILFLVGAATGAHSFEVQLVESGGGVVQPGRSLRLSCAASGFSFSGYGMHWVRQAPGKGLEWVAYISYDGSNKYYADSVKGRFTISRDNSKNTLYLQMNSLRAEDTAVYYCAKDPAWGLRLGESSSYDFDIWGQGTMVTVSSTRDKTHTCPPCPAIPEDTFFPSPESSCDVKLVEKSFETDTNLNFQNLSVIGFRILLLKVAGFNLLMTLRLWSSRAKRSGSGVKQTLNFDLLKLAGDVESNPGPSRGHMTEYKPTVRLATRDDVPRAVRTLAAAFADYPATRHTVDPDRHIERVTELQELFLTRVGLDIGKVWVADDGAAVAVWTTPESVEAGAVFAEIGPRMAELSGSRLAAQQQMEGLLAPHRPKEPAWFLATVGVSPDHQGKGLGSAVVLPGVEAAERAGVPAFLETSAPRNLPFYERLGFTVTADVEVPEGPRTWCMTRKPGA
B1: the “NFAT-GFP ASSAY: LNCaP” value with LNCaP cells is “+ (refer to approximately 5%, 10%, 20%, 30%, 40% and 50% GFP positive cells)”.

B2: CD8SP-CD22-FHVH-24-PSMA71v2-chVH-Myc-CD8TM-BBZ-T2A-PAC (protein)
chain: MALPVTALLLPLALLLHAARPQLQLQESGPGLVKPSETLSLTCTVSGDSISSGDYYWGWIRQPPGKGLEWIGHIYYSGVTYYNPSLKSRVTISVDTSRNQFSLKLSSVTAADTAVYYCTREDSSNWRSRGQGTLVTVSSLESGGGGSFEVQLVESGGGVVQPGRSLRLSCAASGFSFSGYGMHWVRQAPGKGLEWVAYISYDGSNKYYADSVKGRFTISRDNSKNTLYLQMNSLRAEDTAVYYCAKDPAWGLRLGESSSYDFDIWGQGTMVTVSSTREQKLISEEDLAKPTTTPAPRPPTPAPTIASQPLSLRPEACRPAAGGAVHTRGLDFACDIYIWAPLAGTCGVLLLSLVITLYCKRGRKKLLYIFKQPFMRPVQTTQEEDGCSCRFPEEEEGGCELRVKFSRSADAPAYQQGQNQLYNELNLGRREEYDVLDKRRGRDPEMGGKPRRKNPQEGLYNELQKDKMAEAYSEIGMKGERRRGKGHDGLYQGLSTATKDTYDALHMQALPPRSSGSGEGRGSLLTCGDVEENPGPHMTEYKPTVRLATRDDVPRAVRTLAAAFADYPATRHTVDPDRHIERVTELQELFLTRVGLDIGKVWVADDGAAVAVWTTPESVEAGAVFAEIGPRMAELSGSRLAAQQQMEGLLAPHRPKEPAWFLATVGVSPDHQGKGLGSAVVLPGVEAAERAGVPAFLETSAPRNLPFYERLGFTVTADVEVPEGPRTWCMTRKPGA
With B2, in the experiment with RAJI cells, the “GFP induction / activity” value is recorded as “able to effectively induce GFP”. Besides, the “GFP induction (relative degree of positivity)” value in the experiment on LNCaP cells (PSMA-expressing LNCaP cells) is listed as “+5.5”.

B3: 22294 (protein)
chain: MALPVTALLLPLALLLHAARPQLQLQESGPGLVKPSETLSLTCTVSGDSISSGDYYWGWIRQPPGKGLEWIGHIYYSGVTYYNPSLKSRVTISVDTSRNQFSLKLSSVTAADTAVYYCTREDSSNWRSRGQGTLVTVSSLEGSIPEDTFFPSPESSCDVKLVEKSFETDTNLNFQNLSVIGFRILLLKVAGFNLLMTLRLWSSRAKRSGSGVKQTLNFDLLKLAGDVESNPGPTSATMDWIWRILFLVGAATGAHSEFMDPDLEIRAAFLRQRNTALRTEVAELEQEVQRLENEVSQYETRYGPLGGGKTRGSGRADCGFTSESYQQGVLSATILYEILLGKATLYAVLVSALVLMAMVKRKDSRGRAKRSGSGATNFSLLKQAGDVEENPGPSRGHMTEYKPTVRLATRDDVPRAVRTLAAAFADYPATRHTVDPDRHIERVTELQELFLTRVGLDIGKVWVADDGAAVAVWTTPESVEAGAVFAEIGPRMAELSGSRLAAQQQMEGLLAPHRPKEPAWFLATVGVSPDHQGKGLGSAVVLPGVEAAERAGVPAFLETSAPRNLPFYERLGFTVTADVEVPEGPRTWCMTRKPGA
On to B3, for which the “NFAT-GFP ASSAY: LNCaP with PSMA-USC76-chVH-EZIP” value with LNCaP cells (LNCaP in presence of SAR adaptor PSMA-USC76-chVH-EZIP) is given as “+1”.

B4: SEQ ID NO: 22286: engineered NKG2D-YA domain attached to the N-terminus of the IgCL fragment of a SAR with Ab-TCR backbone (protein)
chain: MALPVTALLLPLALLLHAARPACLFNQEVQIPLTESYCGPCPKNWICYKNNCYQFFDESKNWYESQASCMSQNASLLKVYSKEDQDLLKLVKSAHWMGLVHIPTNGSWQWEDGSILSPNLLTIIEMQKGDCALYASSFKGYIENCSTPNTYICMQRTVLEGQPKANPTVTLFPPSSEELQANKATLVCLISDFYPGAVTVAWKADGSPVKAGVETTKPSKQSNNKYAASSYLSLTPEQWKSHRSYSCQVTHEGSTVEKTVAPTECSPIKTDVITMDPKDNCSKDANDTLLLQLTNTSAYYMYLLLLLKSVVYFAIITCCLLRRTAFCCNGEKSRAKRSGSGATNFSLLKQAGDVEENPGPTSATMDWIWRILFLVGAATGAHSGPQVQLQESGGGLAQAGGSLRLSCAASGRTFSMGWFRQAPGKEREFVAAITYSGGSPYYASSVRGRFTISRDNAKNTVYLQMNSLKPEDTAVYYCAANPTYGSDWNAENWGQGTQVTVSSGSGGGGSGGGGSGGGGSFEQVQLQQPGAELVKPGASVKMSCKASGYAFSSYWINWMKQKPGQGLEWIGQIYPGDGDTNYNGKFKGRATLTADTSSSTAYMQLSSLTSEDSAVYFCARSITTVVGCAMDYWGQGTSVTVSSTRASTKGPSVFPLAPSSKSTSGGTAALGCLVKDYFPEPVTVSWNSGALTSGVHTFPAVLQSSGLYSLSSVVTVPSSSLGTQTYICNVNHKPSNTKVDKRVEPKSCEVKTDSTDHVKPKETENTKQPSKSCHKPKAIVHTEKVNMMSLTVLGLRMLFAKTVAVNFLLTAKLFFLRAKRSGSGVKQTLNFDLLKLAGDVESNPGPSRGHMTEYKPTVRLATRDDVPRAVRTLAAAFADYPATRHTVDPDRHIERVTELQELFLTRVGLDIGKVWVADDGAAVAVWTTPESVEAGAVFAEIGPRMAELSGSRLAAQQQMEGLLAPHRPKEPAWFLATVGVSPDHQGKGLGSAVVLPGVEAAERAGVPAFLETSAPRNLPFYERLGFTVTADVEVPEGPRTWCMTRKPGA
As for B4, the “GFP induction / activity” value in the experiment with RAJI cells is listed as “robust induction of GFP”. Moreover, in the experiment on LNCaP cells (LNCaP cells, only in the presence of SAR-adaptor PSMA-USC76-chVH-G4S-ULBP2-S3 (SEQ ID NO: 23114)), the GFP induction result is given as “induction of GFP”.

B5: 22045 (protein)
chain: MALPVTALLLPLALLLHAARPQLQLQESGPGLVKPSETLSLTCTVSGDSISSGDYYWGWIRQPPGKGLEWIGHIYYSGVTYYNPSLKSRVTISVDTSRNQFSLKLSSVTAADTAVYYCTREDSSNWRSRGQGTLVTVSSLEGSPIKTDVITMDPKDNCSKDANDTLLLQLTNTSAYYMYLLLLLKSVVYFAIITCCLLRRTAFCCNGEKSRAKRSGSGATNFSLLKQAGDVEENPGPTSMDWIWRILFLVGAATGAHSFEVQLVESGGGVVQPGRSLRLSCAASGFSFSGYGMHWVRQAPGKGLEWVAYISYDGSNKYYADSVKGRFTISRDNSKNTLYLQMNSLRAEDTAVYYCAKDPAWGLRLGESSSYDFDIWGQGTMVTVSSTRDKTHTCPPCPAIPEDTFFPSPESSCDVKLVEKSFETDTNLNFQNLSVIGFRILLLKVAGFNLLMTLRLWSSRAKRSGSGVKQTLNFDLLKLAGDVESNPGPSRGHMTEYKPTVRLATRDDVPRAVRTLAAAFADYPATRHTVDPDRHIERVTELQELFLTRVGLDIGKVWVADDGAAVAVWTTPESVEAGAVFAEIGPRMAELSGSRLAAQQQMEGLLAPHRPKEPAWFLATVGVSPDHQGKGLGSAVVLPGVEAAERAGVPAFLETSAPRNLPFYERLGFTVTADVEVPEGPRTWCMTRKPGA
Regarding B5, the “NFAT-GFP ASSAY: LNCaP” value with LNCaP cells was “+/- (refer to approximately 5%, 10%, 20%, 30%, 40% and 50% GFP positive cells)”.
